Legend:
[1] = target: Crotalus durissus terrificus venom; assay: ELISA, C.d.t. venom-coated plate (5 µg/ml), dilution 1:25
[2] = target: Crotalus durissus terrificus venom; assay: ELISA, C.d.t. venom-coated plate (5 µg/ml), undiluted
[3] = target: Crotalus durissus terrificus venom; assay: ELISA, C.d.t. venom-coated plate, dilution 1:3125
[4] = target: Crotalus durissus terrificus venom; assay: ELISA, C.d.t. venom-coated plate, dilution 1:25
[5] = target: Crotalus durissus terrificus venom; assay: ELISA, C.d.t. venom-coated plate (5 µg/ml), dilution 1:625
[6] = target: Crotalus durissus terrificus venom; assay: ELISA, C.d.t. venom-coated plate, dilution 1:500
[7] = target: Crotalus durissus terrificus venom; assay: ELISA, C.d.t. venom-coated plate (5 µg/ml), dilution 1:3125
[8] = target: Crotalus durissus terrificus venom; assay: ELISA, C.d.t. venom-coated plate, dilution 1:12,500
[9] = target: Crotalus durissus terrificus venom; assay: ELISA, C.d.t. venom-coated plate, dilution 1:125
[10] = target: Crotalus durissus terrificus venom; assay: ELISA, C.d.t. venom-coated plate (5 µg/ml), dilution 1:125
[11] = target: Crotalus durissus terrificus venom; assay: ELISA, C.d.t. venom-coated plate, dilution 1:2,500
[12] = target: Crotalus durissus terrificus venom; assay: ELISA, C.d.t. venom-coated plate, dilution 1:625
[13] = target: Crotalus durissus terrificus venom; assay: ELISA, C.d.t. venom-coated plate, dilution 1:5
[14] = target: Crotalus durissus terrificus venom; assay: ELISA, C.d.t. venom-coated plate, dilution 1:312,500
[15] = target: Crotalus durissus terrificus venom; assay: ELISA, C.d.t. venom-coated plate (5 µg/ml), dilution 1:5
[16] = target: Crotalus durissus terrificus venom; assay: ELISA, C.d.t. venom-coated plate, dilution 1:62,500

Q: What does the source list for “preimmune IgY (PEG preparation from eggs of unimmunized hens or purchased eggs) (antibody)”?
A: absorbance (ELISA) [1]: 0 OD; absorbance (ELISA) [2]: 0.003 OD; absorbance (ELISA) [3]: < 0 OD; absorbance (ELISA) [4]: 0.016 OD; absorbance (ELISA) [5]: 0 OD; absorbance (412 nm filter) [6]: 0.005 OD; absorbance (ELISA) [7]: 0.002 OD; absorbance (412 nm filter) [8]: 0.001 OD; absorbance (ELISA) [9]: < 0 OD; absorbance (ELISA) [10]: 0.003 OD; absorbance (412 nm filter) [11]: 0.004 OD; absorbance (ELISA) [12]: < 0 OD; absorbance (ELISA) [13]: < 0 OD; absorbance (412 nm filter) [14]: 0.01 OD; absorbance (ELISA) [15]: < 0 OD; absorbance (412 nm filter) [16]: 0.001 OD

Reference: patent publication US20040235118A1
